Assay results as given in patent US8008456B2, “Compositions containing, methods involving, and uses of non-natural amino acids and polypeptides” (Ambrx, Inc., priority 2004, dated 2011).

Experiments:
Oxime stability pH 4-8 = assay type: physicochemical
Description: This example provides results of four tests that were conducted on certain illustrative non-natural amino acids as an aid for predicting their properties for incorporation into non-natural amino acid polypeptides.

[1] = Pharmacodynamic studies, bodyweight gain in hypophysectomized rats; assay type: in vivo, Hypophysectomized male Sprague-Dawley rats; conditions: s.c., compared with 30 KPEG-pAF92(his)hGH, p<0.0005
Description: Hypophysectomized male Sprague-Dawley rats were obtained from Charles River Laboratories. Pituitaries were surgically removed at 3-4 weeks of age. Animals were allowed to acclimate for a period of three weeks, during which time bodyweight was monitored. Animals with a bodyweight gain of 0-8 g over a period of seven days before the start of the study were included and randomized to treatment groups. Rats were administered either a bolus dose or daily dose subcutaneously. Throughout the study rats were daily and sequentially weighed, anesthetized, bled, and dosed (when applicable). Blood was collected from the orbital sinus using a heparinized capillary tube and placed into an EDTA coated microfuge tube. Plasma was isolated by centrifugation and stored at −80° C. until analysis. The mean (+/−S.D.) plasma concentrations were plotted versus time intervals.
The peptide IGF-1 is a member of the family of somatomedins or insulin-like growth factors. IGF-1 mediates many of the growth-promoting effects of growth hormone. IGF-1 concentrations were measured using a competitive binding enzyme immunoassay kit against the provided rat/mouse IGF-1 standards (Diagnostic Systems Laboratories). Hypophysectomized rats. Rats (n=5-7 per group) were given either a single dose or daily dose subcutaneously. Animals were sequentially weighed, anesthetized, bled, and dosed (when applicable) daily.

[2] = Pharmacokinetic studies, single s.c. dose in rats, plasma growth hormone ELISA; assay type: in vivo; conditions: single-dose 1 mg/kg bolus s.c., normal male Sprague-Dawley rats; average (+/- standard deviation)
Description: Pharmacokinetic properties of PEG-modified growth hormone compounds were compared to each other and to nonPEGylated growth hormone in male Sprague-Dawley rats (261-425 g) obtained from Charles River Laboratories. Catheters were surgically installed into the carotid artery for blood collection. Following successful catheter installation, animals were assigned to treatment groups (three to six per group) prior to dosing. Animals were dosed subcutaneously with 1 mg/kg of compound in a dose volume of 0.41-0.55 ml/kg. Blood samples were collected at various time points via the indwelling catheter and into EDTA-coated microfuge tubes. Plasma was collected after centrifugation, and stored at −80° C. until analysis. Compound concentrations were measured using antibody sandwich growth hormone ELISA kits from either BioSource International (Camarillo, Calif.) or Diagnostic Systems Laboratories (Webster, Tex.). Concentrations were calculated using standards corresponding to the analog that was dosed. Pharmacokinetic parameters were estimated using the modeling program WinNonlin (Pharsight, version 4.1). Noncompartmental analysis with linear-up/log-down trapezoidal integration was used, and concentration data was uniformly weighted.
Plasma concentrations were obtained at regular intervals following a single subcutaneous dose in rats. […] Plasma samples were taken over the regular time intervals and assayed for injected compound as described. […] Concentration vs time curves were evaluated by noncompartmental analysis (Pharsight, version 4.1). Values shown are averages (+/−standard deviation). Cmax: maximum concentration; terminal t1/2: terminal half-life; AUC0->inf: area under the concentration-time curve extrapolated to infinity; MRT: mean residence time; Cl/f: apparent total, plasma clearance; Vz/f: apparent volume of distribution during terminal phase.

| Oxime Stability pH 4-8 (Oxime stability pH 4-8) | Compound | bodyweight gain at day 9 [1] | AUC0->inf [2] | Cl/f [2] | Cmax [2] | MRT [2] | Terminal t1/2 [2] |
| --- | --- | --- | --- | --- | --- | --- | --- |
| − − | N[C@@H](Cc1ccc2c(c1)NC(=O)C2=O)C(=O)O |  |  |  |  |  |  |
|  | 30KPEG-pAF35(his)hGH: "hGH polypeptides comprising p-acetyl-phenylalanine covalently-linked to 30 kDa PEG at positions 35 and 92" | greater weight gain | 39,918 (±22,683) ng × hr/ml | 35 (±27) ml/hr/kg | 1,885 (±1,011) ng/ml | 19.16 (±4.00) h | 4.85 (±0.80) h |
